Measurements as given in the MegaScale stability set (Tsuboyama et al. 2023).

B1: 2K2A (parent)
chain: ELREAFRLYDKEGNGYISTDVMREILAELDETLSSEDLDAMIDEIDADGSGTVDFEEFMGVMT

Variants of: B1
Assay: folding stability dG (cDNA display proteolysis); higher = more stable
Details: PBS, room temperature

Folding stability dG [kcal/mol] of substitutions, site by site:
N14: E 0.908 | P -0.347 | F 1.7 | V 2.07 | G 0.728 | D 1.3 | L 2.17 | S 1.5 | R 2.11 | A 1.55 | K 2.09 | Q 1.53 | M 1.78 | W 1.38 | I 1.73 | H 1.63 | Y 1.6 | T 1.74 | C 1.43
D20: W 1.99 | N 2.04 | K 2.4 | C 1.9 | F 1.89 | I 2.03 | R 2.23 | G 1.89 | S 2.26 | V 2.14 | M 2.25 | T 2.25 | A 2.28 | P 1.15 | Y 1.66 | Q 2.33 | L 2.35 | E 2.16 | H 2.05
Y16: F 1.89 | K 1.19 | A 0.729 | S 1.03 | P -0.96 | T 1.05 | L 0.96 | M 0.8 | D -0.18 | G -0.095 | H 1.21 | Q 1.03 | R 1.15 | C 0.627 | N 0.623 | V 1.1 | E 0.315 | I 0.893 | W 2.34
V21: I 2.02 | N 1.74 | W 1.09 | A 2.17 | E 1.56 | Q 2.36 | T 1.92 | L 2.19 | C 2 | R 1.88 | G 0.967 | H 1.77 | F 1.41 | Y 1.61 | S 1.94 | D 1.95 | K 2.04 | M 2.06
G13: D 1.41 | H 1.15 | E 1.1 | W 0.579 | F 0.932 | C 1.5 | L 1.11 | K 1.14 | V 0.792 | T 0.448 | S 1.18 | I 0.538 | Y 0.607 | R 1.01 | A 1.05 | Q 1.26 | N 1.74 | P -0.146 | M 1.23
M22: L 1.97 | F 1.65 | H -0.985 | D -0.77 | V 1.4 | W 0.847 | I 1.46 | Y 0.295 | C 0.958 | A 0.924 | T 0.155
E24: A 2.35 | C 2.6
T19: C 1.39 | M 1.91 | F 2.18 | H 1.01 | K 1.67 | S 1.23 | R 1.86 | E 0.025 | Y 2.03 | V 2.04 | Q 0.688 | L 2.27 | N 1.73 | W 1.4 | P 0.762 | D 0.211 | I 2.29 | G 0.526 | A 1.32
A5: W 2.97 | S 1.39 | M 2.91 | T 2.14 | L 3 | N 1.13 | I 2.78 | P 0.29 | R 2.66 | K 2.72 | V 2.6 | H 1.76 | Q 2.3 | Y 2.59
E12: N 1.52 | M 1.53 | S 1.34 | D 1.85 | F 1.45 | Y 1.2 | T 1.32 | A 1.57 | K 1.13 | R 0.846 | G 1.16 | I 1.1 | P 0.544 | W 1.48 | L 1.55 | V 1.19 | C 1.61 | H 1.41 | Q 1.56
I17: T -0.998 | K -0.854 | V 1.22 | Y -0.493 | F 0.818 | R -0.847 | C 0.277 | L 1.36 | S -0.963 | M 0.435 | W 0.006
L8: A 2.18 | W 1.83 | E 1.52 | I 1.8 | F 2.1 | N 1.85 | Q 2.05 | D 0.997 | S 1.92 | Y 1.98 | K 2.44 | H 2.01 | V 2.07 | P 0.853 | R 2.38 | G 1.73 | M 2.05 | T 1.94
G15: M 0.662 | Y 0.571 | D 0.537 | P 0.347 | L 0.841 | Q 0.45 | I 0.513 | A 0.588 | S 0.464 | T 0.259 | W 0.821 | C 1.1 | R 0.333 | F 0.687 | V 0.459 | E 0.488 | N 0.741 | H 0.458 | K 0.271
D10: V 0.886 | R -0.527 | I 1.21 | L 1.26 | W 1.4 | Y 1.15 | E 0.386 | M 1.39 | F 1.66 | A 0.874 | H -0.087 | N -0.227 | S 0.55 | C 2.18 | Q 0.395 | T 0.563 | G 0.123
F6: A 0.316 | S 0.268 | L 0.489 | M 0.623 | R 0.468 | Q 0.462 | G -0.227 | E 0.086 | K 0.192 | C 1.79 | P 0.281 | Y 0.586 | D 0.525 | T 0.266 | H 0.31 | V 0.529 | I 0.623 | W 2.18 | N 0.361
K11: S 1.74 | R 1.71 | T 1.94 | G 1.03 | M 1.77 | C 2.07 | D 0.997 | E 1.36 | L 2.13 | H 1.69 | W 1.88 | V 2.1 | I 2.01 | Y 1.63 | P 1.81 | A 1.74 | Q 1.72 | F 1.82 | N 1.4
Y9: V 0.891 | E 0.654 | C 1.94 | N 0.71 | W 2 | H 1.59 | Q 0.85 | F 1.59 | T 0.17 | M 1.43 | L 2.07 | R 1.32 | I 1.31 | A 1.56 | G 0.24 | S 0.532 | D 0.261 | P 0.057 | K 0.775
R7: Y 1.67 | Q 1.96 | W 1.76 | N 2.06 | M 2.12 | G 1.64 | I 1.93 | V 1.62 | D 1.81 | F 1.61 | C 2.22 | H 1.72 | L 1.93 | K 2.12 | A 2.09 | P 0.375 | S 1.97 | E 1.8 | T 1.75
S18: R 1.59 | N 1.16 | G 1.52 | I 0.865 | K 1.24 | Q 1.01 | M 1.25 | C 1.29 | V 0.765 | A 1.42 | W 0.742 | Y 1.32 | P 1.58 | D 0.936 | L 1.41 | T 2.02 | E 0.834 | H 1.54 | F 1.15
R23: I 0.365 | W 0.731 | V -0.067 | L 0.522 | C 0.094 | Q -0.482 | H -0.034 | S -0.561 | Y 0.595 | A 0.182 | K 1.69 | G -0.378 | M 0.457 | F 0.124 | T -0.478
